B1: Rec102 (subunit of the purified S. cerevisiae Spo11 core complex) (natural protein)
chain: MARDITFLTVFLESCGAVNNDEAGKLLSAWTSTVRIEGPESTDSNSLYIPLLPPGMLKIKLNFKMNDRLVTEEQELFTKLREIVGSSIRFWEEQLFYQVQDVSTIENHVILSLKCTILTDAQISTFISKPRELHTHAKGYPEIYYLSELSTTVNFFSKEGNYVEISQVIPHFNEYFSSLIVSQLEFEYPMVFSMISRLRLKWQQSSLAPISYALTSNSVLLPIMLNMIAQDKSSTTAYQILCRRRGPPIQNFQIFSLPAVTYNK
notes: Rec102, S. cerevisiae; source: Sf9 cells, baculovirus coinfection with Spo11, Rec104 and Ski8; purified as the core complex (NiNTA, Anti-Flag M2, Superdex 200)

Experiments:
[1] = biological target: T1, Spo11 (subunit of the purified S. cerevisiae Spo11 core complex) (S. cerevisiae, UniProt P23179 1-392); test: cryo-EM structure; core complex (~0.2 mg/ml) incubated with 23-bp hairpin DNA with a two-nucleotide 5' overhang, molar ratio 1:2, 25 mM HEPES-NaOH pH 7.5, 150 mM NaCl, 5 mM MgCl2, 2 mM DTT, 2% glycerol, 1 hr on ice; 3.7 Å; settings: both partners purified
T1 construct: Spo11, S. cerevisiae; The complex was purified on NiNTA and anti-Flag resin; Surmise: the tags are on Spo11; source: Sf9 cells, baculovirus coinfection with Rec102, Rec104 and Ski8; purified as the core complex (NiNTA, Anti-Flag M2, Superdex 200)
T1 sequence: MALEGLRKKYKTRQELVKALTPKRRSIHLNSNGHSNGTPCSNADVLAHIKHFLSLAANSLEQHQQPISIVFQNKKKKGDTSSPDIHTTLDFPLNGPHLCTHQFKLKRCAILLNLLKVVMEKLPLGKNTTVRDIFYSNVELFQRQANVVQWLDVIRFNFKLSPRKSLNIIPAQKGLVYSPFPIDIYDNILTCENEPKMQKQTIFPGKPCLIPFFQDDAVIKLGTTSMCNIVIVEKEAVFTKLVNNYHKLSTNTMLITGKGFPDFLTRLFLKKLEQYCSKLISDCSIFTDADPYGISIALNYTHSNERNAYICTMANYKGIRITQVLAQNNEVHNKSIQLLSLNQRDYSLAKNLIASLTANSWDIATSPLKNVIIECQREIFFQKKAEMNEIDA

[2] = biological target: B1; test: as above; settings: both partners purified

Binder: B1
- stoichiometry N [1]: 1

B2: Rec104 (subunit of the purified S. cerevisiae Spo11 core complex) (natural protein)
chain: MSIEEEDTNKITCTQDFLHQYFVTERVSIQFGLNNKTVKRINKDEFDKAVNCIMSWTNYPKPGLKRTASTYLLSNSFKKSATVSLPFILGDPVCMPKRVESNNNDTCLLYSDTLYDDPLIQRNDQAGDEIEDEFSFTLLRSEVNEIRPISSSSTAQILQSDYSALMYERQASNGSIFQFSSP
notes: Rec104, S. cerevisiae; source: Sf9 cells, baculovirus coinfection with Spo11, Rec102 and Ski8; purified as the core complex (NiNTA, Anti-Flag M2, Superdex 200)
- stoichiometry N [1]: 1
- stoichiometry N [2]: 1

B3: Ski8 (subunit of the purified S. cerevisiae Spo11 core complex) (natural protein)
chain: MSKVFIATANAGKAHDADIFSVSACNSFTVSCSGDGYLKVWDNKLLDNENPKDKSYSHFVHKSGLHHVDVLQAIERDAFELCLVATTSFSGDLLFYRITREDETKKVIFEKLDLLDSDMKKHSFWALKWGASNDRLLSHRLVATDVKGTTYIWKFHPFADESNSLTLNWSPTLELQGTVESPMTPSQFATSVDISERGLIATGFNNGTVQISELSTLRPLYNFESQHSMINNSNSIRSVKFSPQGSLLAIAHDSNSFGCITLYETEFGERIGSLSVPTHSSQASLGEFAHSSWVMSLSFNDSGETLCSAGWDGKLRFWDVKTKERITTLNMHCDDIEIEEDILAVDEHGDSLAEPGVFDVKFLKKGWRSGMGADLNESLCCVCLDRSIRWFREAGGK
notes: Ski8, WD-repeat protein, S. cerevisiae; source: Sf9 cells, baculovirus coinfection with Spo11, Rec102 and Rec104; purified as the core complex (NiNTA, Anti-Flag M2, Superdex 200)
- stoichiometry N [1]: 1

— doi:10.1101/2023.10.31.564985, “Cryo-EM structure of the Spo11 core complex bound to DNA” (bioRxiv, 2023)
